Measurements reported in the RNAGym collection of RNA variant scans (doi:10.1093/molbev/msab373).

B1: Azoarcus group I ribozyme (parent)
chain: GUGCCUUGCGCCGGGAAACCACGCAAGGGAUGGUGUCAAAUUCGGCGAAACCUAAGCGCCCGCCCGGGCGUAUGGCAACGCCGAGCCAAGCUUCGGCGCCUGCGCCGAUGAAGGUGUAGAGACUAGACGGCACCCACCUAAGGCAAACGCUAUGGUGAAGGCAUAGUCCAGGGAGUGGCGAAAGUCACACAAACCGG

Variants of: B1
Experiment: reverse-splicing fitness (ratio to wild type); higher = more active; in vitro selection; Mg2+ level not given
How it was run: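 An in vitro group I ribozyme library with randomized positions was T7-transcribed and gel-purified. In triplicate, 10 pmol RNA in EPPS pH 7.5 was reacted with 50 pmoles of a 30-nt RNA substrate for 1 h at 37 °C across several added MgCl2 levels (1–48 mM), then stopped with EDTA. Products were reverse transcribed from a substrate-complementary primer, PCR-amplified and sequenced (HiSeq 4000). Fitness is a variant's read proportion after selection over that before, normalised to wild type.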
GUGCCUUGCGCCGGGAAACCACGCAAGGGAUGGUGUCAAAUUCGGCGAAACCUAAGCGCCCGCCCGGGCGUAUGGCAACGCUGAGCCAAGCUUCGGCGCCUGCGCCGAUGGAGGUGUAGCGACUAGACGGCACCCACCUAAGGCCAACGAUAUGGUGAAGGCAUAGUCGAGGGAGAGGCGAAAGUCACACAAACCGG [C82U A111G A120C A145C C150A C169G U176A] gave a reverse-splicing fitness of 0.0198. Variant GUGCCUUGCGCCGGGAAACCACGCAAGGGAUGGUGUCAAAUUCGGCGAAACCUAAGCGCCCGCCCGGGCGUAUGGCAACGCUGAGCCAAGCUUCGGCGCCUGCGCCGAUGGAGGUGUAGCGACUAGACGGCACCCACCUAAGGCCAACGAUAUGGUGAAGGCAUAGUCUAGGGAGAGGCGAAAGUCACACAAACCGG [C82U A111G A120C A145C C150A C169U U176A] has a reverse-splicing fitness of 0.0146. In the case of GUGCCUUGCGCCGGGAAACCACGCAAGGGAUGGUGUCAAAUUCGGCGAAACCUAAGCGCCCGCCCGGGCGUAUGGCAACGCUGAGCCAAGCUUCGGCGCCUGCGCCGAUGGAGGUGUAGCGACUAGACGGCACCCACCUAAGGCCAACGAUAUGGUGAAGGCAUAGUCUAGGGAGCGGCGAAAGUCACACAAACCGG [C82U A111G A120C A145C C150A C169U U176C], the reverse-splicing fitness is reported as 0.0104. Work on GUGCCUUGCGCCGGGAAACCACGCAAGGGAUGGUGUCAAAUUCGGCGAAACCUAAGCGCCCGCCCGGGCGUAUGGCAACGCUGAGCCAAGCUUCGGCGCCUGCGCCGAUGGAGGUGUAGCGACUAGACGGCACCCACCUAAGGCCAACGAUAUGGUGAAGGCAUAGUCUAGGGAGGGGCGAAAGUCACACAAACCGG [C82U A111G A120C A145C C150A C169U U176G] yielded a reverse-splicing fitness of 0.00393. Work on GUGCCUUGCGCCGGGAAACCACGCAAGGGAUGGUGUCAAAUUCGGCGAAACCUAAGCGCCCGCCCGGGCGUAUGGCAACGCUGAGCCAAGCUUCGGCGCCUGCGCCGAUGGAGGUGUAGCGACUAGACGGCACCCACCUAAGGCCAACGUUAUGGUGAAGGCAUAGUCAAGGGAGUGGCGAAAGUCACACAAACCGG [C82U A111G A120C A145C C150U C169A] yielded a reverse-splicing fitness of 0.00705. With GUGCCUUGCGCCGGGAAACCACGCAAGGGAUGGUGUCAAAUUCGGCGAAACCUAAGCGCCCGCCCGGGCGUAUGGCAACGCUGAGCCAAGCUUCGGCGCCUGCGCCGAUGGAGGUGUAGCGACUAGACGGCACCCACCUAAGGCCAACGGUAUGGUGAAGGCAUAGUCAAGGGAGCGGCGAAAGUCACACAAACCGG [C82U A111G A120C A145C C150G C169A U176C] the reverse-splicing fitness was 0.00573. Variant GUGCCUUGCGCCGGGAAACCACGCAAGGGAUGGUGUCAAAUUCGGCGAAACCUAAGCGCCCGCCCGGGCGUAUGGCAACGCUGAGCCAAGCUUCGGCGCCUGCGCCGAUGGAGGUGUAGCGACUAGACGGCACCCACCUAAGGCCAACGGUAUGGUGAAGGCAUAGUCAAGGGAGGGGCGAAAGUCACACAAACCGG [C82U A111G A120C A145C C150G C169A U176G] has a reverse-splicing fitness of 0.00425. GUGCCUUGCGCCGGGAAACCACGCAAGGGAUGGUGUCAAAUUCGGCGAAACCUAAGCGCCCGCCCGGGCGUAUGGCAACGCUGAGCCAAGCUUCGGCGCCUGCGCCGAUGGAGGUGUAGCGACUAGACGGCACCCACCUAAGGCCAACGGUAUGGUGAAGGCAUAGUCAAGGGAGAGGCGAAAGUCACACAAACCGG [C82U A111G A120C A145C C150G C169A U176A] gave a reverse-splicing fitness of 0.00643. Work on GUGCCUUGCGCCGGGAAACCACGCAAGGGAUGGUGUCAAAUUCGGCGAAACCUAAGCGCCCGCCCGGGCGUAUGGCAACGCUGAGCCAAGCUUCGGCGCCUGCGCCGAUGGAGGUGUAGCGACUAGACGGCACCCACCUAAGGCCAACGAUAUGGUGAAGGCAUAGUCAAGGGAGGGGCGAAAGUCACACAAACCGG [C82U A111G A120C A145C C150A C169A U176G] yielded a reverse-splicing fitness of 0.00444. Work on GUGCCUUGCGCCGGGAAACCACGCAAGGGAUGGUGUCAAAUUCGGCGAAACCUAAGCGCCCGCCCGGGCGUAUGGCAACGCUGAGCCAAGCUUCGGCGCCUGCGCCGAUGGAGGUGUAGCGACUAGACGGCACCCACCUAAGGCCAACGGUAUGGUGAAGGCAUAGUCGAGGGAGUGGCGAAAGUCACACAAACCGG [C82U A111G A120C A145C C150G C169G] yielded a reverse-splicing fitness of 0.00679. With GUGCCUUGCGCCGGGAAACCACGCAAGGGAUGGUGUCAAAUUCGGCGAAACCUAAGCGCCCGCCCGGGCGUAUGGCAACGCUGAGCCAAGCUUCGGCGCCUGCGCCGAUGGAGGUGUAGCGACUAGACGGCACCCACCUAAGGCCAACGGUAUGGUGAAGGCAUAGUCAAGGGAGUGGCGAAAGUCACACAAACCGG [C82U A111G A120C A145C C150G C169A] the reverse-splicing fitness was 0.0076. For GUGCCUUGCGCCGGGAAACCACGCAAGGGAUGGUGUCAAAUUCGGCGAAACCUAAGCGCCCGCCCGGGCGUAUGGCAACGCUGAGCCAAGCUUCGGCGCCUGCGCCGAUGGAGGUGUAGCGACUAGACGGCACCCACCUAAGGCCAACGGUAUGGUGAAGGCAUAGUCUAGGGAGUGGCGAAAGUCACACAAACCGG [C82U A111G A120C A145C C150G C169U], the reverse-splicing fitness was 0.00749. In the case of GUGCCUUGCGCCGGGAAACCACGCAAGGGAUGGUGUCAAAUUCGGCGAAACCUAAGCGCCCGCCCGGGCGUAUGGCAACGCUGAGCCAAGCUUCGGCGCCUGCGCCGAUGGAGGUGUAGCGACUAGACGGCACCCACCUAAGGCCAACGGUAUGGUGAAGGCAUAGUCCAGGGAGAGGCGAAAGUCACACAAACCGG [C82U A111G A120C A145C C150G U176A], the reverse-splicing fitness is reported as 0.00388. GUGCCUUGCGCCGGGAAACCACGCAAGGGAUGGUGUCAAAUUCGGCGAAACCUAAGCGCCCGCCCGGGCGUAUGGCAACGCUGAGCCAAGCUUCGGCGCCUGCGCCGAUGGAGGUGUAGCGACUAGACGGCACCCACCUAAGGCCAACGGUAUGGUGAAGGCAUAGUCCAGGGAGGGGCGAAAGUCACACAAACCGG [C82U A111G A120C A145C C150G U176G] showed a reverse-splicing fitness of 0.00231. GUGCCUUGCGCCGGGAAACCACGCAAGGGAUGGUGUCAAAUUCGGCGAAACCUAAGCGCCCGCCCGGGCGUAUGGCAACGCUGAGCCAAGCUUCGGCGCCUGCGCCGAUGGAGGUGUAGCGACUAGACGGCACCCACCUAAGGCCAACGGUAUGGUGAAGGCAUAGUCCAGGGAGCGGCGAAAGUCACACAAACCGG [C82U A111G A120C A145C C150G U176C] showed a reverse-splicing fitness of 0.00742.
